Test results reported in patent US8796201B2 (The Board of Trustees of the Leland Stanford Junior …, priority 2002, dated 2014).

Assay: Double-blind crossover gluten challenge: 25 g D-xylose 5-hour urine excretion test
Format: in vivo, human (Celiac Sprue patients)
Source text: It was first established that a low-dose, short-term (5-10 g/day for 14 days) gluten oral supplement induces fat and carbohydrate malabsorption when given to asymptomatic Celiac Sprue patients on an otherwise gluten free diet. This protocol was modified to examine the effect of gluten pre-treated with pepsin, trypsin and chymotrypsin (PTC-Gluten) as compared to PTC-Gluten additionally treated with PEP (PTC-Gluten+PEP). In this study, Celiac patients maintaining a gluten-free diet ingested a supplement of 5 g/day gluten as PTC-Gluten or PTC-Gluten+PEP in an orange-lemon juice vehicle for 14 days in a double-blind crossover manner. A 6-week washout interval between individual arms of the crossover trial allowed patients to recover completely from the effects, if any, of the test material in the first arm.
Subjects and protocols: This study was approved by the Institutional Review Board of the Palo Alto Medical Foundation in Palo Alto, Calif., and all participants in the study were counseled regarding risks and signed an informed consent document. 22 patients were recruited who were in symptomatic remission on a gluten-free diet. Two patients dropped out of the study, one near the end of the first stage and the other prior to the second stage. The 20 patients who completed the study included 7 men and […] aged 21 to 78 (mean age 49). The time since diagnosis for the 20 patients ranged from 3 months to 18 years (mean 6 years). Patients provided copies of their initial small-intestinal biopsy pathology report and laboratory reports documenting a history of at least one positive celiac antibody (gliadin, endomysial or transglutaminase) to verify a diagnosis of Celiac Sprue. They also completed an entry questionnaire inquiring about their medical history, adherence to the gluten-free diet, and current symptoms. The format of the study was a double-blinded crossover in which each patient consumed either a low daily dose of a gluten supplement (5 g; equivalent of one-half slice of bread) that was predigested with pepsin, trypsin and chymotrypsin alone (PTC-Gluten) or PTC-Gluten treated with prolyl endopeptidase (PTC-Gluten+PEP). The PEP in the latter orange juice mixture was completely inactivated through a heating process following proteolysis of the gliadin peptides. […]
Studied variables: During each stage of the study, patients completed a daily questionnaire inquiring about symptoms and their adherence to the gluten-free diet. […] The serum anti-gliadin IgA antibodies and anti-tissue transglutaminase IgA and IgG antibodies were measured by an enzyme linked immunosorbent assay (ELISA) kit (INOVA Diagnostics, Inc., San Diego, Calif.). […] Total serum IgA levels were determined by an Integra instrument (Roche) (normal <81 mg/dl). […]

[1] = All patients with full xylose data (N = 14)
[2] = Subgroup with normal (>4 gm/5 hrs) Pre-stage Xylose (N = 10)

B1: PEP: prolyl endopeptidase; Examples 1-2: from Flavobacterium meningosepticum (US Biological); Example 11: source not stated (protein, UniProt P27028 21-705, looked up)
Prolyl endopeptidase: QNSNVLKYPETKKVSHTDTYFGTQVSDPYRWLEDDRAEDTKAWVQQEVKFTQDYLAQIPFRDQLKKQLMDIWNYEKISAPFKKGKYTYFSKNDGLQAQSVLYRKDAAGKTEVFLDPNKFSEKGTTSLASVSFNKKGTLVAYSISEGGSDWNKIIILDAETKKQLDETLLDVKFSGISWLGDEGFFYSSYDKPKEGSVLSGMTDKHKVYFHKLGTKQSQDELIIGGDKFPRRYIGAYVTDDQRYLVVSAANATNGNELYIKDLKNKTDFIPIITGFDSNVNVADTDGDTLYLFTDKDAPNKRLVKTTIQNPKAETWKDVIAETSEPLEINTGGGYFFATYMKDAIDQVKQYDKNGKLVRAIKLPGSGNASGFGGEKTEKDLYYSFTNYITPPTIFKYNVTTGNSEVYQKPKVKFNPENYVSEQVFYTSSDGTKIPMMISYKKGLKKDGKNPTILYSYGGFNISLQPAFSVVNAIWMENGGIYAVPNIRGGGEYGKKWHDAGTKMQKKNVFNDFIAAGEYLQKNGYTSKEYMALSGRSNGGLLVGATMTMRPDLAKVAFPGVGVLDMLRYNKFTAGAGWAYDYGTAEDSKEMFEYLKSYSPVHNVKAGTCYPSTMVITSDHDDRVVPAHSFKFGSELQAKQSCKNPILIRIETNAGHGAGRSTEQVVAENADLLSFALYEMGIKSLK
[1]
  PEP Effective (patients / patients with positive gluten challenge), urine xylose: 4/8
  PEP Effective, urine xylose: 50%
[2]
  PEP Effective (patients / patients with positive gluten challenge), urine xylose: 3/5
  PEP Effective, urine xylose: 60%
